Patent US20230103704A1, “HUMAN ANTI-IN[…] FOR THE […] OF IN[…] ISSUES” (priority 2020, published 2023)

B1: dornase alfa: recombinant human deoxyribonuclease I, polypeptide produced in CHO cells, comparative example (protein, UniProt P24855 23-282, looked up)
Deoxyribonuclease-1: LKIAAFNIQTFGETKMSNATLVSYIVQILSRYDIALVQEVRDSHLTAVGKLLDNLNQDAPDTYHYVVSEPLGRNSYKERYLFVYRPDQVSAVDSYYYDDGCEPCGNDTFNREPAIVRFFSRFTEVREFAIVPLHAAPGDAVAEIDALYDVYLDVQEKWGLEDVMLMGDFNAGCSYVRPSQWSSIRLWTSPTFQWLIPDSADTTATPTHCAYDRIVVAGMLLRGAVVPDSALPFNFQAAYGLSDQLAQAISDHYPVEVMLK
B2: interferon gamma: human cytokine of 17 kD, 138 amino acids, SEQ ID NO: 14 (protein, listed as Homo sapiens)
chain: QDPYVKEAENLKKYFNAGHSDVADNGTLFLGILKNWKEESDRKIMQSQIVSFYFKLFKNFKDDQSIQKSVETIKEDMNVKFFNSNKKKRDDFEKLTNYSVTDLNVQRKAIHELIQVMAELSPAAKTGKRKRSQMLFRG

Format: physicochemical
Conditions: for MMAD / released dosage at the mouthpiece as share of the nominal value / released dosage: 0.1 mg/ml in physiological saline; for released dosage: at the mouthpiece; for time of aerosol release: corresponds to 30 strokes/breaths
Experimental: Aviptadil can be obtained, e.g., from Bachem AG, Bubendorf, Switzerland, in GMP quality.
The experimental procedure was carried out pursuant to Ph. Eur. 2.9.44 (Preparations for Nebulisation: Characterisation). A cascade impactor (Next Generation Impactor (NGI), Copley Scientific Ltd., Nottingham, UK) was used to determine the respective percentage for each fraction of the nebulized particles.
The thus generated aerosol was delivered to the cascade impactor by means of a mouthpiece (SK-211, NEBU-TEC, Eisenfeld, Germany).
The nebulization chamber (yellow stamp, 250 μl liquid discharge) was filled. The puff profile configured at the breath simulator was chosen in such a way that a correct simulation of inhalation by means of the nebulizer was ensured. The corresponding time was recorded.
Single values obtained for each cascade were added. […] MMAD, FPF and FPM were calculated from the obtained values: […]

Molecule	MMAD	released dosage at the mouthpiece as share of the nominal value	released dosage	time of aerosol release
Ac-Ser-Tyr-Ser-Met-Glu-His-Phe-Arg-Trp-Gly-Lys-Pro-Val-NH2 [α-melanocyte stimulating hormone]	3.11 μm	45%	0.045 mg	3 min
Colistin [reference compound]	3.61 μm	75%	0.075 mg	3 min
Gly-Leu-Ser-Lys-Gly-Cys-Phe-Gly-Leu-Lys-Leu-Asp-Arg-Ile-Gly-Ser-Met-Ser-Gly-Leu-Gly-Cys [C-type natriuretic peptide]	3.37 μm	77%	0.077 mg	3 min
His-Ser-Asp-Gly-Ile-Phe-Thr-Asp-Ser-Tyr-Ser-Arg-Tyr-Arg-Lys-Gln-Met-Ala-Val-Lys-Lys-Tyr-Leu-Ala-Ala-Val-Leu-Gly-Lys-Arg-Tyr-Lys-Gln-Arg-Val-Lys-Asn-Lys [PACAP-38]	3.25 μm	58%	0.058 mg	3 min
Ser-Pro-Lys-Met-Val-Gln-Gly-Ser-Gly-Cys-Phe-Gly-Arg-Lys-Met-Asp-Arg-Ile-Ser-Ser-Ser-Ser-Gly-Leu-Gly-Cys-Lys-Val-Leu-Arg-Arg-His [B-type natriuretic peptide]	3.46 μm	69%	0.069 mg	3 min
Tyr-Arg-Gln-Ser-Met-Asn-Asn-Phe-Gln-Gly-Leu-Arg-Ser-Phe-Gly-Cys-Arg-Phe-Gly-Thr-Cys-Thr-Val-Gln-Lys-Leu-Ala-His-Gln-Ile-Tyr-Gln-Phe-Thr-Asp-Lys-Asp-Lys-Asp-Asn-Val-Ala-Pro-Arg-Ser-Lys-Ile-Ser-Pro-Gln-Gly-Tyr [adrenomedullin]	3.41 μm	53%	0.053 mg	3 min
relaxin-3: human relaxin isoform, heterodimer of 51 amino acids, subunit 1 SEQ ID NO: 12 and subunit 2 SEQ ID NO: 13	3.36 μm	49%	0.049 mg	3 min
B1	3.72 μm	65%	0.065 mg	3 min
B2	3.46 μm	95%	0.045 mg	3 min
